# According to patent US6096502, “Substrate for detecting UL9 helicase activity” (Lee; Sam S.-K.):
# Biological target: UL9 protein (origin-binding protein/helicase) (UniProt P10193 P10193:1-851)
# Experiment: EMSA; binding to Box I with attached ssDNA tails verified by gel mobility shift; substrate number not specified
# Details: tags: none stated; baculovirus-infected Sf21 nuclear extract, 83 kDa; chain copies: 2 (homodimer on Box I, stated); label: 5'-32P on 44-mer; forked duplex with 18-nt 3' ssDNA tail and 10-nt 5' ssDNA tail
# UL9 protein (origin-binding protein/helicase), sequence (P10193 whole entry, one chain of several): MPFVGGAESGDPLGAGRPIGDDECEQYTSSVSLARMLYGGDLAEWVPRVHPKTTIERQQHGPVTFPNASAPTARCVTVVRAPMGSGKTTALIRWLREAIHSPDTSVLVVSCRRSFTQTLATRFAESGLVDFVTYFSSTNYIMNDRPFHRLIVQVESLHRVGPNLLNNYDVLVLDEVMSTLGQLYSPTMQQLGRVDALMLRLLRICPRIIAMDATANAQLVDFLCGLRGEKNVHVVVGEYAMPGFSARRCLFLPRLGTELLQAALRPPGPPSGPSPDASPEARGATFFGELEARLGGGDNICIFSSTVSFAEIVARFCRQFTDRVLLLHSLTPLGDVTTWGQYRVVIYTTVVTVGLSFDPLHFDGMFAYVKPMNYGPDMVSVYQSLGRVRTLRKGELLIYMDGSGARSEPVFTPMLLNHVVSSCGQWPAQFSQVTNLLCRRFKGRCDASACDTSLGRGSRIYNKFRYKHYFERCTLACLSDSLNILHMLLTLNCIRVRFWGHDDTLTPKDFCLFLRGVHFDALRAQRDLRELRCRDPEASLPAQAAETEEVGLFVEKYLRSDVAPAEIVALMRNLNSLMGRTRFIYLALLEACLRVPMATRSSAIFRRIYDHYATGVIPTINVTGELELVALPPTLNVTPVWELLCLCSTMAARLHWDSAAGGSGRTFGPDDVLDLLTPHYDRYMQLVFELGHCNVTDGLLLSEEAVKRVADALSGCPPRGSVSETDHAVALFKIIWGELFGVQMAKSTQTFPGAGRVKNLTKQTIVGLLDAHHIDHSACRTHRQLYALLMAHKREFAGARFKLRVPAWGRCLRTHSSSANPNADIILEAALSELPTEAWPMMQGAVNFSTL
binder,measurement,value
"Substrate I (18-nt 3' tail on first strand, 5' tail on second strand) (mixed) DNA 1: CGCGAAGCGTTCGCACTTCGTCCCGCCTTCCTGCGCCTTCCTGT DNA 2: CATGCTCGCAGCGGGACGAAGTGCGAACGCTTCGCG",binding result,binds
